Patent JP2018153172A (dated 2018)
Numbering of substitutions follows the chain as printed. Ends that are not written are not given here.

T1: SEQ ID NO 127 (15-residue oligopeptide of human gp130) (human, also: linker added for immobilisation)
T1 construct: also called 配列番号127
T1 peptide: VQDLKPFTEYVFRIR

T2: SEQ ID NO 128 (15-residue oligopeptide of human gp130) (human, also: linker added for immobilisation)
T2 construct: also called 配列番号128
T2 peptide: DLKPFTEYVFRIRCM

T3: SEQ ID NO 108 (15-residue oligopeptide of human gp130) (human, also: linker added for immobilisation)
T3 construct: also called 配列番号108
T3 peptide: SIKSVIILKYNIQYR

T4: SEQ ID NO 109 (15-residue oligopeptide of human gp130) (human, also: linker added for immobilisation)
T4 construct: also called 配列番号109
T4 peptide: KSVIILKYNIQYRTK

T5: SEQ ID NO 110 (15-residue oligopeptide of human gp130) (human, also: linker added for immobilisation)
T5 construct: also called 配列番号110
T5 peptide: VIILKYNIQYRTKDA

T6: 可溶性ヒトgp130受容体 (soluble human gp130 receptor, extracellular region of SEQ ID NO 1 with six histidines) (human, UniProt P40189 23-619)
T6 construct: Secreted from CHO DG44 cells and purified on HisTrap; no cleavage site is stated; also called 可溶性ヒトgp130受容体タンパク質; ヒト可溶性gp130受容体
T6 sequence: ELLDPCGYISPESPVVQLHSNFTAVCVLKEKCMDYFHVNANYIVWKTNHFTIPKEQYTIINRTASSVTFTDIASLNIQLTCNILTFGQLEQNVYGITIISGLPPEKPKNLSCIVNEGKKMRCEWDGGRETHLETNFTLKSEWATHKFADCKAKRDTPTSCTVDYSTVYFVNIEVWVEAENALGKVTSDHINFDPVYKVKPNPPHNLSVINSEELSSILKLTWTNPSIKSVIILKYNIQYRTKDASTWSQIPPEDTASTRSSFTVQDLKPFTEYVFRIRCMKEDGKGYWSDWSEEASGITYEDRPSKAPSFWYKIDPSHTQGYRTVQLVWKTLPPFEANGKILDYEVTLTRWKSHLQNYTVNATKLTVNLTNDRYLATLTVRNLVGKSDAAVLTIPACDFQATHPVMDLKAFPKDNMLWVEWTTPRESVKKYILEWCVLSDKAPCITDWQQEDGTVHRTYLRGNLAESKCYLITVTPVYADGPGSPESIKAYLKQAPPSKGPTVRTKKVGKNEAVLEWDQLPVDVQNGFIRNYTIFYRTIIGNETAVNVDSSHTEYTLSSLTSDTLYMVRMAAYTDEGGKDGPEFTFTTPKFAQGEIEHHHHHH

B1: 抗体A (antibody A, mouse anti-human gp130 monoclonal antibody) (antibody, mouse IgG1, kappa, V domains shown)
VH: EVLLQQSGPELVKPGASVKIPCKASGYTFTDYNMDWVKQSHGKSLEWIGDINSHSGGIIYNQKFKDKAILTVDKSSSTAYMELRSLTSEDTAVYYCARTYYVYGHFFDYWGQGTTLTVSS
VL: QSVLTQSPAFISASPGEKVTMTCNVSSSVTSMYWYQQKPGSSPKPWIYLTSNLASGVPPRFSGSGSGTSYSLTISSLEAEDAATYYCQQWSTNPLTFGAGTKLELKR
notes: Mouse IgG1, kappa; also called マウス抗体A; ヒト化前の抗体A(マウス抗体)
B2: 抗体B (antibody B, mouse anti-human gp130 monoclonal antibody) (antibody, V domains shown)
VH: EVQLQQSGAELVKPGASVKLSCTASGFNIRDTYMHWVKQRPEQGLEWIGRIDPANGNTKYDPKFQDKATMTADTSSNTAYLQLSSLTSEDTAVYYCARRGNYFYAMDYWGQGTSVTVSS
VL: DIVLTQSPASLAVSLGQRATISCRASESVEYYGTSLMQWYQQKPGQPPKLLIYVASNVESGVPARFSGSGSGTDFSLNIHPVEEDDIAMYFCQQSRKVPWTFGGGTKLEIKR
notes: Mouse IgG2b, kappa; Entries are the polypeptides as encoded by the cDNA (leader probably included)
B3: 抗体C (antibody C, mouse anti-human gp130 monoclonal antibody) (antibody, V domains shown)
VH: EVQVVESGGDLLLPGGSLKLSCAVSGFTFNAYGMSWVRQTPDKRLELVATINSNGDSTYYPDSVKGRFTISRDNAKHTLYLQMSSLKSEDTAMYYCANFYGGFPYWGQGTLVTVSA
VL: VIVLTQSHKFMSTSVGDRVSITCKASQDVDTAVAWYQQKVGHSPKLLIYWAVTRHTGVPDRFTGSGSGTDFTLTISNVQSEDLADYFCQQYSSYPYTFGGGTKLEIKR
notes: Mouse IgG2a, kappa; Entries are the polypeptides as encoded by the cDNA (leader probably included)
B4: ヒト化抗体AH2−AL3 (antibody, V domains shown)
VH: QVQLQQPGAELVQPGTSVRLSCKASGYTFTDYNMDWVKQRPGQGLEWIGDINSHSGGIIYNQKFKDKATLTVDKSSSTAYMQLSSLTSEDSAVYYCTRTYYVYGHFFDYWGQGTLVTVSA
VL: DIQMTQSPSTLSASVGDRVTITCNVSSSVTSMYWYQQKPGKAPKLLIYLTSNLASGVPARFSGSGSGTEFTLTISSLQPDDFATYYCQQWSTNPLTFGQGTKVEVK
notes: VH on human IgG1 constant region (pFUSEss-CHIg-hG1), VL on human kappa constant region (pFUSE2ss-CLIg-hk); also called AH2-AL3
B5: ヒト化抗体AH2−AL4 (antibody, V domains shown)
VH: B4 VH
VL: B4 VL with T10S, P39Q, A42S, K44Q, I47V, A59S, E69D, D80E, V105I
notes: VH on human IgG1 constant region (pFUSEss-CHIg-hG1), VL on human kappa constant region (pFUSE2ss-CLIg-hk); also called AH2-AL4
B6: ヒト化抗体A (H鎖 pFU-AH2, L鎖 AL−4F1) (antibody, V domains shown)
VH: B4 VH
VL: DIQMTQSPSSLSASVGDRVTITCNVSSSVTSMYWYQQKQGKSPQLLVYLTSNLASGVPSRFSGSGSGTQFSLKINNLQPEDFGSYYCQQWSTNPLTFGQGTKLDLKR
notes: also called AL-L4F1 with AH2
B7: ヒト化抗体A (H鎖 pFU-AH2, L鎖 AL−6E6) (antibody, V domains shown)
VH: B4 VH
VL: ELVLTQSPGTLSLSAGERATLSCNVSSSVTSMYWYQQKPGKAPKLLIYLTSNLASGVPSRFSGSGSGTDYTFTISSLQPEDIATYYCQQWSTNPLTFGQGTKVEIKR
notes: also called AL-L6E6 with AH2
B8: ヒト化抗体A (H鎖 pFU-AH2, L鎖 AL−14A10) (antibody, V domains shown)
VH: B4 VH
VL: DIQMTQSPSTLSASIGDRVTITCNVSSSVTSMYWYQQKPGKAPKLLIYLTSNLASGVPSRFSGSGSGTDFTLTISSLQPEDFATYYCQQWSTNPLTFGQGTKLEIKR
notes: also called AL-L14A10 with AH2
B9: ヒト化抗体AH2−L13H10 (antibody, V domains shown)
VH: B4 VH
VL: EIVLTQSPDFQSVTPKEKVTITCNVSSSVTSMYWYQQKPGKAPKLLVYLTSNLASGVPSRFSGSGSGTDFTLTINSLEAEDAATYYCQQWSTNPLTFGQGTKLEIKR
notes: also called AH2−13H10; AH2 with AL-13H10 (AL-L13H10)

Experiments:
[1] = target: T1, SEQ ID NO 127 (15-residue oligopeptide …); experiment: peptide microarray, antibody at 10 ug/mL, fluorescence
[2] = target: T2, SEQ ID NO 128 (15-residue oligopeptide …); experiment: as above
[3] = target: T3, SEQ ID NO 108 (15-residue oligopeptide …); experiment: as above
[4] = target: T4, SEQ ID NO 109 (15-residue oligopeptide …); experiment: as above
[5] = target: T5, SEQ ID NO 110 (15-residue oligopeptide …); experiment: as above
[6] = target: T6, 可溶性ヒトgp130受容体 (soluble human gp130 …); experiment: SPR, Biacore T200, gp130 amine-coupled on CM5, antibody as analyte
[7] = target: T6, 可溶性ヒトgp130受容体 (soluble human gp130 …); experiment: ELISA, immobilised soluble human gp130, recombinant antibody from COS1 cells
[8] = target: T6, 可溶性ヒトgp130受容体 (soluble human gp130 …); experiment: SPR, Biacore T200, gp130 amine-coupled on CM5 (266 RU), antibody as analyte
[9] = target: T6, 可溶性ヒトgp130受容体 (soluble human gp130 …); experiment: SPR, Biacore T200, gp130 on CM5 (4023 RU), COS1 supernatant as analyte, off-rate screening
[10] = target: T6, 可溶性ヒトgp130受容体 (soluble human gp130 …); experiment: SPR, Biacore T200, gp130 amine-coupled on CM5 (389 RU), antibody as analyte

Binder	binding result [1]	binding result [2]	binding result [3]	binding result [4]	binding result [5]	binding result [9]	also measured
B1	binds	binds	binds	binds	binds	–	Kd [6]: 0.667 nM; koff [6]: 0.000116 s⁻¹; kon [6]: 174000 M⁻¹ s⁻¹
B2	binds	binds	binds	binds	binds	–	binding result [7]: binds
B3	binds	binds	binds	binds	binds	–	binding result [7]: binds
B4	–	–	–	–	–	–	Kd [8]: 3.8 nM; koff [8]: 0.000268 s⁻¹; kon [8]: 70600 M⁻¹ s⁻¹
B5	–	–	–	–	–	–	Kd [8]: 4.61 nM; koff [8]: 0.000289 s⁻¹; kon [8]: 62700 M⁻¹ s⁻¹
B6	–	–	–	–	–	binds	–
B7	–	–	–	–	–	binds	–
B8	–	–	–	–	–	binds	–
B9	–	–	–	–	–	–	Kd [10]: 2.27 nM; koff [10]: 0.000203 s⁻¹; kon [10]: 89300 M⁻¹ s⁻¹
